Article doi:10.1101/2024.06.05.597643, “Identification and characterization of a human MORC2 DNA binding region that is required for gene silencing” (bioRxiv, 2024)

What was measured:
[1] = biological target: T1, MORC2 wild type, dephosphorylated (Homo sapiens) (UniProt Q9Y6X9); assay: fluorescence anisotropy; conditions: FA: 50 mM NaCl, 3 mM MgCl2, 20 mM Na-HEPES pH 7.4, 1 mM TCEP, 10% glycerol, 0.025 mM ZnCl2, 50 ug/ml BSA, 1 nM nucleic acid, room temperature
T1 sequence: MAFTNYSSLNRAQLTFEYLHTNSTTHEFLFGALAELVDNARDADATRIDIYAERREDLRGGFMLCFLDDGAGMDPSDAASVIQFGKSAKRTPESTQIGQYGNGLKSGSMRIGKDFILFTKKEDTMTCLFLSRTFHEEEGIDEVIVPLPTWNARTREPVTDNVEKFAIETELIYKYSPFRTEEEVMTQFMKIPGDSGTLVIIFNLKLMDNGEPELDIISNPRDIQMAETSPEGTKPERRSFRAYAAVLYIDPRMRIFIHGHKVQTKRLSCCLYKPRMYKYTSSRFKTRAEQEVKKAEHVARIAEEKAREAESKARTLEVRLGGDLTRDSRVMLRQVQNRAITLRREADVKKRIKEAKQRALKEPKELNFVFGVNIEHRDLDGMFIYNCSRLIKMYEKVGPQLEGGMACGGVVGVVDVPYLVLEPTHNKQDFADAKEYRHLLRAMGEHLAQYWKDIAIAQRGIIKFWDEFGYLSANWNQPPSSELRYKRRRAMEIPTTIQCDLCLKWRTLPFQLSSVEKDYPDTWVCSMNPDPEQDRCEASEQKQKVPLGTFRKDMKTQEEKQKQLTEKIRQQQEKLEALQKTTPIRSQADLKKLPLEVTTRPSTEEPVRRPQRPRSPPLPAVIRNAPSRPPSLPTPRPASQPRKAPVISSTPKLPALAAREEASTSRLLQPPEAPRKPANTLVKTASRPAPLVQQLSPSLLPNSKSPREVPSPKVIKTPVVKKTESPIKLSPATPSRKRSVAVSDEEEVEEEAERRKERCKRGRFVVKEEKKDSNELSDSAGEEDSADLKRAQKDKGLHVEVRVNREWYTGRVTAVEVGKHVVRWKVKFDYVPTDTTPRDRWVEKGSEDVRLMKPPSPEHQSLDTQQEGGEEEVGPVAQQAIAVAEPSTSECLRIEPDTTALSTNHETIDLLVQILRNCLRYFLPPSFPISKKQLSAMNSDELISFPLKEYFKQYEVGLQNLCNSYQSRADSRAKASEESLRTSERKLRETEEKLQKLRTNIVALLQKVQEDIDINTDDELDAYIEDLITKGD

[2] = biological target: the molecule itself; assay: SEC-MALS; coiled coil 3 1.5 mg/mL, 150 mM NaCl, 3 mM MgCl2, 20 mM Na-HEPES pH 7.4, 0.5 mM TCEP, 1.5% glycerol, 0.025 mM ZnCl2; Wyatt 010 column
[3] = biological target: the molecule itself; assay: SEC-MALS; full-length MORC2 2 mg/mL, 150 mM NaCl, 3 mM MgCl2, 20 mM Na-HEPES pH 7.4, 0.5 mM TCEP, 1.5% glycerol, 0.025 mM ZnCl2, without AMP-PNP; Wyatt 030 column

ATATCGATGTATATATCTGACACGTGCCTGGAGACTAGGGAGTAATCCCCTTGGCGGTTAAAACGCGGGGGACAGCGCGTACGTGCGTTTAAGCGGTGCTAGAGCTGTCTACGACCAATTGAGCGGCCTCGGCACCGGGATTCTGATAT (double strand) [Nucleosome on 2-601-2 DNA]
Kd [1]: 16 nM

B1: MORC2 coiled coil 3 (domain or fragment, human, UniProt Q9Y6X9 900-1032, looked up)
chain: ALSTNHETIDLLVQILRNCLRYFLPPSFPISKKQLSAMNSDELISFPLKEYFKQYEVGLQNLCNSYQSRADSRAKASEESLRTSERKLRETEEKLQKLRTNIVALLQKVQEDIDINTDDELDAYIEDLITKGD
notes: also called CC3; source: E. coli BL21 (DE3) RIL, purified (HisTrap, TEV cleavage, S75 SEC); not shown: His6, N-terminal, cleaved
stoichiometry N [2]: 2

B2: full-length human MORC2 (natural protein, UniProt Q9Y6X9 1-1032, looked up)
chain: MAFTNYSSLNRAQLTFEYLHTNSTTHEFLFGALAELVDNARDADATRIDIYAERREDLRGGFMLCFLDDGAGMDPSDAASVIQFGKSAKRTPESTQIGQYGNGLKSGSMRIGKDFILFTKKEDTMTCLFLSRTFHEEEGIDEVIVPLPTWNARTREPVTDNVEKFAIETELIYKYSPFRTEEEVMTQFMKIPGDSGTLVIIFNLKLMDNGEPELDIISNPRDIQMAETSPEGTKPERRSFRAYAAVLYIDPRMRIFIHGHKVQTKRLSCCLYKPRMYKYTSSRFKTRAEQEVKKAEHVARIAEEKAREAESKARTLEVRLGGDLTRDSRVMLRQVQNRAITLRREADVKKRIKEAKQRALKEPKELNFVFGVNIEHRDLDGMFIYNCSRLIKMYEKVGPQLEGGMACGGVVGVVDVPYLVLEPTHNKQDFADAKEYRHLLRAMGEHLAQYWKDIAIAQRGIIKFWDEFGYLSANWNQPPSSELRYKRRRAMEIPTTIQCDLCLKWRTLPFQLSSVEKDYPDTWVCSMNPDPEQDRCEASEQKQKVPLGTFRKDMKTQEEKQKQLTEKIRQQQEKLEALQKTTPIRSQADLKKLPLEVTTRPSTEEPVRRPQRPRSPPLPAVIRNAPSRPPSLPTPRPASQPRKAPVISSTPKLPALAAREEASTSRLLQPPEAPRKPANTLVKTASRPAPLVQQLSPSLLPNSKSPREVPSPKVIKTPVVKKTESPIKLSPATPSRKRSVAVSDEEEVEEEAERRKERCKRGRFVVKEEKKDSNELSDSAGEEDSADLKRAQKDKGLHVEVRVNREWYTGRVTAVEVGKHVVRWKVKFDYVPTDTTPRDRWVEKGSEDVRLMKPPSPEHQSLDTQQEGGEEEVGPVAQQAIAVAEPSTSECLRIEPDTTALSTNHETIDLLVQILRNCLRYFLPPSFPISKKQLSAMNSDELISFPLKEYFKQYEVGLQNLCNSYQSRADSRAKASEESLRTSERKLRETEEKLQKLRTNIVALLQKVQEDIDINTDDELDAYIEDLITKGD
notes: Cloned into both 438-B (N-terminal His6-TEV) and 438-C (N-terminal His6-MBP-TEV); the tag was removed with TEV protease; also called wildtype MORC2; dephosphorylated MORC2; not shown: His6, N-terminal, cleaved
stoichiometry N [3]: 2
